Test results from US6767991 (Boehringer Ingelheim, dated 2004).
*1 amine or outer side, *2 acyl side, *3 side chain or, on linkers, in order; H or OH if unused. Primed or numbered codes have the meaning given here. Where no end group is shown, it is not given here. [ ]: non-standard residue; d: D form. Pro((4-tert-butyl-phenyl)-methoxy) = Pro(4-R13), R13 = (4-tert-butyl-phenyl)-methoxy; Hyp(4-Bn) = 4(R)-benzyloxyproline, O=C([C@@H]1C[C@@H](OCc2ccccc2)CN1[*:1])[*:2]; Pro(1-NpCH2O)″ = Pro(4-R13), R13 = naphthalen-1-ylmethoxy; Pro(2-NpCH2O)″ = Pro(4-R13), R13 = naphthalen-2-ylmethoxy; Glutaryl = O=C(CCCC(=O)[*:2])[*:1]; Pro(4-OBn) = Pro(4-R13), R13 = OBn; Pro(O-Bn) = Pro(4-R13), R13 = O-Bn; NMeI = CC[C@H](C)[C@H](NC)C(=O)O; Pro(Bn) = Pro(4-R13), R13 = Bn; AllylGly = C=CC[C@H](N)C(=O)O; Chg = N[C@H](C(=O)O)C1CCCCC1; Suc = O=C(CCC(=O)[*:2])[*:1]; Tle = CC(C)(C)[C@H](N)C(=O)O; code B = not defined here; Ac5c = NC1(C(=O)O)CCCC1; Acca = not defined here; Nva = CCC[C@H](N)C(=O)O; Abu = CC[C@H](N)C(=O)O; Acc = not defined here; Ac3c = NC1(C(=O)O)CC1

B1: Compound 224 (Table 2): B-Ile-Val-Pro(1-NpCH2O)-Nva, B drawn (peptide)
peptide: {code B}-IV[Pro(4-(1-NpCH2O))][Nva]
modifications: reading uncertain; also: further groups not given here, printed as B-Ile-Val-Pro(1-NpCH2O)-Nva
B2: Compound 223 (Table 2): B-Ile-Val-Pro(1-NpCH2O)-Nva, B drawn (peptide)
peptide: {code B}-IV[Pro(4-(1-NpCH2O))][Nva]
modifications: reading uncertain; also: further groups not given here, printed as B-Ile-Val-Pro(1-NpCH2O)-Nva
B3: Compound 304 (Table 3): Ac-Chg-Val-W-Acc, W drawn (peptide)
peptide: Ac-[Chg]VX[Acc]
modifications: not fully specified (residue 3); printed as Ac-Chg-Val-W-Acc; also: further groups not given here

These binders were tested against T1, recombinant NS3 protease with the NS4A peptide cofactor … (molar ratio enzyme:cofactor 1:100) (hepatitis C virus genotype 1b) (assay: cell-based or functional assay).

Row | Binder | IC50 [µM]
1 | Ac-DDIVP[AllylGly] [Compound 124 (Table 1): Ac-Asp-Asp-Ile-Val-Pro-AlGly] | 210
2 | Ac-DDIVP[Ac5c] [Compound 125 (Table 1): Ac-Asp-Asp-Ile-Val-Pro-Acpe] | 210
3 | Ac-DE[Chg]V[Glu(OBn)][Acca] (reading uncertain; also: printed as Ac-Asp-Glu-Chg-Val-Glu(OBn)-Acca) [Compound 133 (Table 1): Ac-Asp-Glu-Chg-Val-Glu(OBn)-Acca] | 39
4 | Suc-DIVPC [Compound 103 (Table 1): DAD-Asp-Ile-Val-Pro-Cys] | 26
5 | Ac-DDIVP[Abu] [Compound 122 (Table 1): Ac-Asp-Asp-Ile-Val-Pro-Abu] | 315
6 | Ac-D[dE]IVPC [Compound 105 (Table 1): Ac-Asp-D-Glu-Ile-Val-Pro-Cys] | 1.5
7 | Ac-EDIVPC [Compound 102 (Table 1): Ac-Glu-Asp-Ile-Val-Pro-Cys] | 59
8 | Ac-DDIVIC [Compound 119 (Table 1): Ac-Asp-Asp-Ile-Val-Ile-Cys] | 90
9 | Ac-D[dD]IVPC [Compound 104 (Table 1): Ac-Asp-D-Asp-Ile-Val-Pro-Cys] | 8.5
10 | Ac-D[Tle]IVPC [Compound 108 (Table 1): Ac-Asp-Tbg-Ile-Val-Pro-Cys] | 31
11 | Suc-DIVP[Nva] [Compound 130 (Table 1): DAD-Asp-Ile-Val-Pro-Nva] | 123
12 | Ac-DDIVPC [Compound 101 (Table 1): Ac-Asp-Asp-Ile-Val-Pro-Cys] | 46
13 | Ac-DDIV[Hyp(4-Bn)]C [Compound 121 (Table 1): Ac-Asp-Asp-Ile-Val-Hyp(4-Bn)-Cys] | 1.7
14 | Ac-DD[Tle]VPC [Compound 111 (Table 1): Ac-Asp-Asp-Tbg-Val-Pro-Cys] | 79
15 | Ac-DDIVP[Ac3c] [Compound 126 (Table 1): Ac-Asp-Asp-Ile-Val-Pro-Acca] | 45
16 | Ac-DE[Chg]EEC [Compound 131 (Table 1): Ac-Asp-Glu-Chg-Glu-Glu-Cys] | 24

Molecular target: T1, recombinant NS3 protease with the NS4A …
Assay: cell-based or functional assay
Remark: another data set of the same source

Row | Binder | IC50 [µM]
17 | Ac-DDIV[Pro(4-(Ph(CH2)3))][Nva] [Compound 217 (Table 2): Ac-Asp-Asp-Ile-Val-Pro(Ph(CH2)3)-Nva] | 3
18 | Ac-DDIV[Pro(4-(Ph(CH2)3))][Nva] [Compound 230 (Table 2): Ac-Asp-Asp-Ile-Val-Pro(Ph(CH2)3)-Nva] | 3.3
19 | Ac-DDIV[Pro(O-Bn)][Nva] [Compound 201 (Table 2): Ac-Asp-Asp-Ile-Val-Pro(O-Bn)-Nva] | 7.2
20 | Ac-DDIV[Pro((4-tert-butyl-phenyl)-methoxy)][Nva] [Compound 209 (Table 2): Ac-Asp-Asp-Ile-Val-Pro((4-tert-butyl-phenyl)-methoxy)-Nva] | 2.6
21 | Suc-IV[Pro(4-(1-NpCH2O))][Nva] [Compound 221 (Table 2): DAD-Ile-Val-Pro(1-NpCH2O)-Nva] | 22
22 | Ac-IVP[Nva] (not fully specified (residue 3); printed as Ac-Ile-Val-Pro(1-NpCH2O)-Nva) [Compound 225 (Table 2): Ac-Ile-Val-Pro(1-NpCH2O)-Nva] | 45
23 | Ac-DDIVP[Nva] [Compound 273 (Table 2): Ac-Asp-Asp-Ile-Val-Pro(R13 = H)-Nva] | 17.5
24 | B1 | 56
25 | Ac-[Chg]VPC (not fully specified (residue 3); printed as Ac-Chg-Val-Pro(O-Bn)-Cys) [Compound 261 (Table 2): Ac-Chg-Val-Pro(O-Bn)-Cys] | 28
26 | Ac-DDIV[Pro(2-NpCH2O)″][Nva] [Compound 208 (Table 2): Ac-Asp-Asp-Ile-Val-Pro(2-NpCH2O)-Nva] | 0.71
27 | Ac-DDIV[Pro(Bn)][Nva] [Compound 216 (Table 2): Ac-Asp-Asp-Ile-Val-Pro(Bn)-Nva] | 60
28 | Glutaryl-IVP[Ac3c] (not fully specified (residue 3); printed as DAE-Ile-Val-Pro(1-NpCH2O)-Acca) [Compound 237 (Table 2): DAE-Ile-Val-Pro(1-NpCH2O)-Acca] | 5.5
29 | Suc-[NMeI]V[Pro(4-(1-NpCH2O))][Nva] [Compound 220 (Table 2): DAD-N(Me)Ile-Val-Pro(1-NpCH2O)-Nva] | 31
30 | Ac-D[dE]IV[Pro(4-OBn)]C [Compound 260 (Table 2): Ac-Asp-D-Glu-Ile-Val-Pro(O-Bn)-Cys] | 0.18
31 | Ac-DIV[Pro(4-(1-NpCH2O))][Nva] [Compound 219 (Table 2): Ac-Asp-Ile-Val-Pro(1-NpCH2O)-Nva] | 2.3
32 | Ac-IVP[Ac3c] (not fully specified (residue 3); printed as Ac-Ile-Val-Pro(1-NpCH2O)-Acca) [Compound 262 (Table 2): Ac-Ile-Val-Pro(1-NpCH2O)-Acca] | 40
33 | B2 | 51
34 | Ac-D[dV]IVPC [Compound 274 (Table 2): Ac-Asp-D-Val-Ile-Val-Pro(R13 = H)-Cys] | 7.6
35 | Ac-DDIV[Pro(1-NpCH2O)″][Nva] [Compound 207 (Table 2): Ac-Asp-Asp-Ile-Val-Pro(1-NpCH2O)-Nva] | 0.39
36 | Glutaryl-IV[Pro(4-(1-NpCH2O))][Nva] [Compound 222 (Table 2): DAE-Ile-Val-Pro(1-NpCH2O)-Nva] | 20

Molecular target: T1, recombinant NS3 protease with the NS4A …
Assay: cell-based or functional assay
Remark: another data set of the same source

Row | Binder | IC50 [µM]
37 | B3 | 1.1

Molecular target: T1, recombinant NS3 protease with the NS4A …
Assay: cell-based or functional assay
Remark: another data set of the same source

Row | Binder | IC50 [µM]
38 | {HOOC‑CH2CH2‑N(Me)2‑C(O)‑CH2‑CH(cyclohexyl)‑C(O)}-Val-[Pro(4-(1-NpCH2O))]-[Ac3c] [Compound 407 (Table 4): B HOOC-CH2CH2-N(Me)2-C(O)-; R4 cyclohexyl; P3 Val; R13 1-NpCH2O; P1 Acca] | 1.5
39 | {MeOOC‑CH2‑CH2‑N(Me)c(O)‑CH2‑CH(cyclohexyl)‑C(O)}-Val-[Pro(4-(1-NpCH2O))]-[Ac3c] [Compound 406 (Table 4): B MeOOC-CH2-CH2-N(Me)c(O)-; R4 cyclohexyl; P3 Val; R13 1-NpCH2O; P1 Acca] | 25
40 | {(HOOC-(CH2)2)2‑NC(O)‑CH2‑CH(cyclohexyl)‑C(O)}-Val-[Pro(4-(1-NpCH2O))]-[Ac3c] [Compound 413 (Table 4): B [HOOC-(CH2)2]2-NC(O)-; R4 cyclohexyl; P3 Val; R13 1-NpCH2O; P1 Acca] | 0.12
41 | {MeOOC‑(CH2)2‑N(Me)2‑C(O)‑CH2‑CH(cyclohexyl)‑C(O)}-Val-[Pro(4-(1-NpCH2O))]-[Ac3c] [Compound 408 (Table 4): B MeOOC-(CH2)2-N(Me)2-C(O)-; R4 cyclohexyl; P3 Val; R13 1-NpCH2O; P1 Acca] | 11
42 | {(HOOC-CH2)2‑NC(O)‑CH2‑CH(cyclohexyl)‑C(O)}-Val-[Pro(4-(1-NpCH2O))]-[Ac3c] [Compound 412 (Table 4): B [HOOC-CH2]2-NC(O)-; R4 cyclohexyl; P3 Val; R13 1-NpCH2O; P1 Acca] | 0.8
43 | {HOOC‑CH2‑N(Me)‑C(O)‑CH2‑CH(cyclohexyl)‑C(O)}-Val-[Pro(4-(1-NpCH2O))]-[Ac3c] [Compound 409 (Table 4): B HOOC-CH2-N(Me)-C(O)-; R4 cyclohexyl; P3 Val; R13 1-NpCH2O; P1 Acca] | 24
44 | {(HOOC-(CH2)2)2‑NH‑CH2‑CH2‑CH(cyclohexyl)‑C(O)}-Val-[Pro(4-(1-NpCH2O))]-[Ac3c] [Compound 411 (Table 4): B [HOOC-(CH2)2]2-NH-CH2-; R4 cyclohexyl; P3 Val; R13 1-NpCH2O; P1 Acca] | 0.36
45 | {EtOOC‑CH‑N(Me)2‑C(O)‑CH2‑CH(cyclohexyl)‑C(O)}-Val-[Pro(4-(1-NpCH2O))]-[Ac3c] [Compound 410 (Table 4): B EtOOC-CH-N(Me)2-C(O)-; R4 cyclohexyl; P3 Val; R13 1-NpCH2O; P1 Acca] | 32
46 | {HOOC‑CH2CH2‑N(Me)C(O)‑CH2‑CH(cyclohexyl)‑C(O)}-Val-[Pro(4-(1-NpCH2O))]-[Ac3c] [Compound 405 (Table 4): B HOOC-CH2CH2-N(Me)C(O)-; R4 cyclohexyl; P3 Val; R13 1-NpCH2O; P1 Acca] | 1.6
